Measured values taken from PMC9499943 (2022).
Values joined by “and” are separate entries in the source; they are usually repeats but may differ in a detail not shown here. Identical values can stand only once.

Legend:
[1] = target: T1, His-tagged RBD (RBD-His) protein of SARS-CoV-2 (SARS-CoV-2, UniProt P0DTC2 319-541); test: BLI
[2] = target: T1, His-tagged RBD (RBD-His) protein of …; test: BLI; remark: listed apart in the source

B1: CoV2-06 (antibody, V domains shown)
VH: QVELQESGPGLVKPSGTLSLTCAVSGGSISSNNWWTWVRQPPGKGLEWIGEIHHSGGTNYNPSLKSRVTMSVDKSKNQFSLNLYSVTAADTAVYYCTRDRAGGTYSGFDFWGQGTLVTVSS
VL: QAVVTQPASVSGSPGQSITISCTGTSSDVGGYNYVSWYQQHPGKAPKLMIYDVSNRPSGVSNRFSGSKSGNTASLTISGLQAEDEADYYCSSYTSSSTVVFGGGTKVTVL
Kd [1]: 0.27 nM and 0.09 nM

B2: CoV2-14 (antibody, V domains shown)
VH: EVQLQQSGPGLVKPSQTLSLTCAISGDSVSSNSAAWNWIRQSPSRGLEWLGRTYYRSKWYNDYAVSVKSRITINPDTSKNQFSLQLNSVTPEDTAVYYCAREEQQLVHDYYYYGMDVWGQGTMVTVSS
VL: QAVVTQPASVSGSPGQSITISCTGTSSDIGAYNYISWYQQHPGKAPKLIIYEVSNRPSGISYRFSGSKSGNTASLTISGLQAEDEANYYCSSYAGSISFGGGTKVTVL
koff [2]: 0.000222 s⁻¹ and 0.000552 s⁻¹
Kd [1]: 0.62 nM and 0.58 nM
